Patent US20230002798A1, “PROCESS FOR THE PREPARATION OF A FERMENTABLE SUGAR COMPOSITION AND THE FERMENTATION THEREOF” (WeissBioTech GmbH, priority 2019, published 2023)

How the values were obtained:
[1] = SSF of maltodextrins with added trehalose, 24 h (Example 1); set-up: species or system Yeast (Deltaferm® AL-18); settings: SSF 24 h, maltodextrin + 20 g/L trehalose, enzyme 937.5 kU per ton
Protocol: (§1) Quantification of ethanol yield Ethanol was quantified via HPLC. Samples were taken at the end of the SSF or during SSF at set time points. Samples were centrifuged for 1 min at 17,000 xg and sterile filtered (0.2 μm). The samples were frozen at −80° C. prior to measurements. Ethanol was determined with an Aminex 87C column (Bio-Rad Laboratories, Inc., US) on a Shimadzu HPLC system.
(§2) For simultaneous saccharification and fermentation (abbreviated SSF), the oligo-1,6-glucosidases—either Agl1 or Gth—were used as crude Bacillus extract. Glucidex® Maltodextrin 12 (Roquette, FR) was dissolved in SSF-medium (5 g/L yeast extract, 5 g/L peptone, 1 g/L K2HIPO4, 0.5 g/L Mg2SO4 in 50 mM citrate buffer, pH 4.8) at 300 g/L. Panose, isomaltose, isomaltotriose, maltose, maltotriose, or trehalose was added at 20 g/L. As a positive control, 20 g/L glucose was added instead of the respective sugar. The SSF medium containing starch hydrolysate (maltodextrins) and sugars was sterile filtered (0.2 μm). Yeast (Deltaferm® AL-18, WeissBioTech GmbH, Ascheberg, Germany) was grown in YINaC medium (50 g/L dextrose, 5 g/L yeast extract, 5 g/L peptone, 1 g/L K2HPO4, 0.5 g/L Mg2SO4*7H2O, 2 g/L NH4Cl in 50 mM sodium citrate, pH 4.8) for 2 days at 37° C. and harvested by centrifugation for 15 min at 5100 rpm and 8° C. Pelleted yeast was added to the SSF-medium at a final concentration of 6 g/L. Glucoamylase (Deltazym® GA L-E5, WeissBioTech GmbH, Ascheberg, Germany) was added at 40 g per ton of dry starch equivalent. The enzyme product Agl1 or Gth was added up to a final concentration of 187.5 kU per ton of dry starch equivalent. For the SSF with trehalose, Agl1 or Gth was added at 937.5 kU per ton of dry starch equivalent. As a negative control, an SSF as described above was run without oligo-1,6-glucosidase/enzyme product. The SSF was performed at 30° C. without stirring or shaking for 24 h.

[2] = SSF of maltodextrins with added isomaltotriose, 24 h (Example 1); set-up: species or system Yeast (Deltaferm® AL-18); settings: SSF 24 h, maltodextrin + 20 g/L isomaltotriose, enzyme 187.5 kU per ton
Protocol: as §1, §2

[3] = SSF of maltodextrins with added maltose, 24 h (Example 1); set-up: species or system Yeast (Deltaferm® AL-18); settings: SSF 24 h, maltodextrin + 20 g/L maltose, enzyme 187.5 kU per ton
Protocol: as §1, §2

[4] = SSF of commercial liquefied starch, 72 h (Example 3); set-up: species or system Yeast (Deltaferm® AL-18); settings: SSF 72 h, commercial liquefied starch 300 g/L, glucoamylase 200 g/t, enzyme 187.5 kU per ton
Protocol: as §1
Residual sugars were quantified via HPLC. Samples were taken at the end of the SSF or during SSF at set time points. Samples were centrifuged for 1 min at 17 000 xg and sterile filtered (0.2 μm). The samples were frozen at −80° C. prior to measurements. Residual sugars were determined with a Zorbax NH2 column (Agilent Technologies, Inc., US) on an Agilent 1200 HPLC system.
Liquefied starch was analysed prior to use on a Zorbax NH2 column (Agilent Technologies, Inc., US) for analysis of mono-, di- and trisaccharide type and content, and on an Aminex 42A column (Bio-Rad Laboratories, Inc., US) for analysis of degree of polymerisation (DP) detecting DP1-DP6 content. IPLC was performed on a Shimadzu IPLC system.
For SSF, the enzyme product was used as crude Bacillus extract. Acidified liquefied starch (pH 2.0) from a commercial plant, containing no detectable amounts of panose, isomaltose, isomaltotriose or trehalose, was brought to pH 4.8. SSF medium components (5 g/L yeast extract, 5 g/L peptone, 1 g/L K2HIPO4, 0.5 g/L Mg2SO4 in 50 mM citrate buffer, pH 4.8) were added to liquefied starch (300 g/L). The SSF medium containing starch was sterile filtered (0.2 μm). Yeast (Deltaferm® AL-18, WeissBioTech GmbH, Ascheberg, Germany) was grown in YINaC medium (50 g/L dextrose, 5 g/L yeast extract, 5 g/L peptone, 1 g/L K2HPO4, 0.5 g/L Mg2SO4*7H2O, 2 g/L NH4Cl in 50 mM sodium citrate, pH 4.8) for 2 days at 37° C. and harvested by centrifugation for 15 min at 5100 rpm and 8° C. Pelleted yeast was added to the SSF at a final concentration of 6 g/L. Glucoamylase (Deltazym® GA L-E10, WeissBioTech GmbH, Ascheberg, Germany) was added at 200 g per ton of dry starch equivalent. The enzyme product Agl1 or Gth was added to a final concentration of 187.5 kU per ton of dry starch equivalent. As control, no oligo-1,6-glucosidase/enzyme product was added. The SSF was performed at 30° C. without stirring or shaking for 72 h.

[5] = Storage stability (50% v/v glycerol, 4° C.); format: physicochemical; settings: at 4° C., extrapolated from 12 months data
Protocol: Storage stability was determined by measuring the activity of the enzymes stored in a glass container in a stabilizing formulation (50% v/v glycerol) at 4° C. over a time period of 12 months. […] “Without a loss in activity” is defined as an extrapolated activity of greater than 95% of the initial activity.

[6] = Lab-scale SSF run with 32% dextrins supplemented with panose; set-up: species or system alcohol yeasts (Deltaferm® AL-18); settings: 30° C., pH 4.8, 72 h, glucoamylase 415 g/t, yeast 6 g/L
[7] = SSF of maltodextrins with added isomaltose, 24 h (Example 1); set-up: species or system Yeast (Deltaferm® AL-18); settings: SSF 24 h, maltodextrin + 20 g/L isomaltose, enzyme 187.5 kU per ton
Protocol: as §1
For simultaneous saccharification and fermentation (abbreviated SSF), the oligo-1,6-glucosidases—either Agl1 or Gth—were used as crude Bacillus extract. Glucidex® Maltodextrin 12 (Roquette, FR) was dissolved in SSF-medium (5 g/L yeast extract, 5 g/L peptone, 1 g/L K2HIPO4, 0.5 g/L Mg2SO4 in 50 mM citrate buffer, pH 4.8) at 300 g/L. Panose, isomaltose, isomaltotriose, maltose, maltotriose, or trehalose was added at 20 g/L. As a positive control, 20 g/L glucose was added instead of the respective sugar. The SSF medium containing starch hydrolysate (maltodextrins) and sugars was sterile filtered (0.2 μm). Yeast (Deltaferm® AL-18, WeissBioTech GmbH, Ascheberg, Germany) was grown in YINaC medium (50 g/L dextrose, 5 g/L yeast extract, 5 g/L peptone, 1 g/L K2HPO4, 0.5 g/L Mg2SO4*7H2O, 2 g/L NH4Cl in 50 mM sodium citrate, pH 4.8) for 2 days at 37° C. and harvested by centrifugation for 15 min at 5100 rpm and 8° C. […]

[8] = format: biochemical; settings: pH 5
Protocol: For activity measurements, the enzyme Agl1 was incubated with 10 mM and 50 mM panose, isomaltose, isomaltotriose, maltose, maltotriose, and trehalose for 10 min at 37° C. in Britton-Robertson buffer, pH 5. The enzyme Gth was incubated with 15 mM panose, 10 and 50 mM isomaltose, and 10, 50 and 100 mM maltotriose and trehalose for 10 min at 37° C. in Britton-Robertson buffer, pH 5. The reaction was stopped with 60 μL of 1 M NaOH, followed by addition of 60 μL of 1 M HCL. The amount of produced glucose was quantified using a standardized glucose assay kit (D-Glucose HK Assay Kit, Megazyme u.c. IRE). Glucose concentration was determined as specified in the instructions. Units are defined as the amount of enzyme required to produce one μmol of glucose per minute.

Molecule	ethanol concentration increase by % compared to the negative control [1] [%]	ethanol concentration increase compared to the negative control [1]	ethanol concentration increase by % compared to the negative control [2] [%]	ethanol concentration increase compared to the negative control [2]	ethanol concentration increase by % compared to the negative control [3] [%]	ethanol concentration increase compared to the negative control [3]	ethanol concentration increase by % compared to the negative control [4] [%]	ethanol concentration increase compared to the negative control [4]	storage stability without a loss in activity [5]	increase of ethanol yield [6] [%]	ethanol concentration increase by % compared to the negative control [7] [%]	ethanol concentration increase compared to the negative control [7]	substrate degradation (activity on trehalose) [8]
Gth: oligo-1,6-glucosidase of Parageobacillus thermoglucosidasius, amino acid sequence SEQ ID NO:2, expressed in Bacillus subtilis (protein, listed as Parageobacillus thermoglucosidasius, WP_042386239.1 alpha-glucosidase) MERVWWKEAVVYQIYPRSFYDSNGDGIGDIRGIIAKLDYLKELGVDVVWLSPVYKSPNDDNGYDISDYRDIMDEFGTMADWKTMLEEMHKRGIKLVMDLVVNHTSDEHPWFIESRKSKDNPYRDYYIWRPGKNGKEPNNWESVFSGSAWEYDEMTGEYYLHLFSKKQPDLNWENPKVRREVYEMMKFWLDKGVDGFRMDVINMISKVPELPDGEPQSGKKYASGSRYYMNGPRVHEFLQEMNREVLSKYDIMTVGETPGVTPKEGILYTDPSRRELNMVFQFEHMDLDSGPGGKWDIRPWSLADLKKTMTKWQKELEGKGWNSLYLNNHDQPRAVSRFGDDGKYRVESAKMLATFLHMMQGTPYIYQGEEIGMTNVRFPSIEDYRDIETLNMYKERVEEYGEDPQEVMEKIYYKGRDNARTPMQWDDSENAGFTAGTPWIPVNPNYKEINVKAALEDPNSVFHYYKKLIQLRKQHDIIVYGTYDLILEDDPYIYAYTRTLGNEQLIVITNFSEKTPVFRLPDHIIYKTKELLISNYDVDEAEELKEIRLRPWEARVYKIRLP	31	0.26 percentage points (v/v)	48	0.57 percentage points (v/v)	2.8	0.06 percentage points (v/v)	4	0.47 percentage points (v/v)	18-24 month	2			
Agl1: oligo-1,6-glucosidase of Bifidobacterium breve UCC2003, amino acid sequence SEQ ID NO:1, expressed in Bacillus subtilis (protein, Bifidobacterium breve UCC2003; ACM89182.1 alpha-glucosidase 1) MMTTFNRAIIPDAIRTNGATPNPWWSNAVVYQIYPRSFQDTNGDGFGDLKGITSRLDYLADLGVDVLWLSPVYKSPQDDNGYDISDYQDIDPLFGTLDDMDELLAEAHKRGLKVVMDLVVNHTSDEHAWFEASKNKDDEHADWYWWRPARPGTTPGEPGSEPNQWGSYFGGSAWEYCPERGEYYLHQFSKKQPDLNWENPAVRRAVYDMMNWWLDRGIDGFRMDVITLISKRTDANGRLPGEYGSELDDLPVGEEGYSNPNPFCADGPRQDEFLKEMRREVFAGREGFLTVGEAPGITPVRNEHITNPANGELDMLFLFDHVDFDCDGVKWKPLPLDLPGFKRIMAGYQTAVENVGWASLFTGNHDQPRVVSRWGDDSSEESRVRSAKALGLMLHMHRGTPYVYQGEELGMTNAHFTSLDQYRDLESLNAYRQRVEEAKVQSPESMLAGIAARGRDNSRTPMQWDGSAYAGFTAPDAATEPWISVNPNHAEINAAGEFDDPDSVYAFYKKLIALRHNSSIVAAGEWQLIDADDAHVYAFTRTLGNERLLVVVNLSGRTVDLPRESTELIAGGVTEPDIILSTYDAPHTVVSLANRELDPWEAAAVQL	226	1.86 percentage points (v/v)	40	0.48 percentage points (v/v)	1.5	0.03 percentage points (v/v)	2	0.30 percentage points (v/v)	18-24 month	2	74	0.98 percentage points (v/v)	breaks down trehalose
